Our source for the protein production values is a protein production outcome set (Wang et al. 2014).
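Also: failed if final PepcDB status was selected cloned or expressed and not failed if soluble or beyond.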

The data set in a line: label from the status in PepcDB records.
For “MVKVELVYIANSKNCLHYKMDLKQGATVEEALIESNIYSTCPETRELPVGVYGKRVSVDQVLKEGDRIEIYRPLILDPKEKRRKLAQFKK”, the protein production entry is recorded as “failed”.
For the sequence “MTDYASLLMSLTSGSALDSGCMEQLIQEGLYVTPALFSVDRAALWVLDKDEQAYLCEADFFDGMIDHRSSQRLTKKEDAELFSFLESTSEIIINNYFTYESFGLNTSRILSRFQLCSLLLIPLQIKGENRGFIFLGDSQKNIEWSPDVLFASRILVQLFERALLALDNSVAETKLQHQYQLMSEIEKLAK”, the protein production result was “failed”.
As for “MLRTFVLMFFTSLSFIVAYYITFSPLILAEFSHALIDFLTIAFSIIAIKFIGENEVAEGRFSYGLHRLEVVVAMINLIIIILLSLAVAYTSVTSLFKETTNDSFTLIVSSALASFLTYFASPKERNDLGKKGLYMHILSDFLGYIMGFIIGILIFISGIRELDPVGAIILVILNFALSIPLLKEAFLIFMEGSSVKIDHIMEELTKISPSVHHLHVWSICDHVKVATLHVKVSPNLTIAEADKIRGSICDFLKEKYGISHVTVQFETNVDD”, the protein production entry is recorded as “failed”.
Consider “MPRVIPPENLGCPPFRALTFDSLGLIKVTEARGQERGIPTVVNTWGEMNASRSVLAASIDDRLRNPLLAVARKDGNVEVINPCNGDLHFSYSVFGDDGCSPEDNEISALHLFRKKIDDQTERSCTLLTCTKKGDVSLRSVKFPDAHGNSTDDASPKTWKACGSGEILVGKVDGSENFSLFGGKRVEANIWDLEQCTKIWSAKCPPKNNLGIFTPTWFTSATFLSKDDHRKFVTGTKSHQVRLYDISTQRRPVLSFDFRETAITSIAEDPDGHTIYVGNASADLASFDIRTGKLLGSFLGKCSGSIRSVVRHPQHQVIASCGLDRYLRVYDVKTRQLISAVFLKQHLTGLVFDSGFSGEETAVANTVAEAATEEKMTIMDQEDDETEKAPVKRKKSKKEKRSREIVFEGEDDEENEDEIEKAPVKTKKSKKEKRSREKVSEGEEKDELRSKKTREHKKKTKIVKHNQED”, for which the protein production entry is “failed”.
Then “MYNAQLGIGILKYVNTMTKYSALLVLFLFSMIANSINAQPFVALDNRNKIELNEHDLWFKTQSLDTNPSFLALSQLHQNANRVTSTFGGSGAYISKIKLTNTKGQKDTWFVNIHAVYLDIGTAYWQPEHGEPIVLESFGHMGSENPKLAHSQAFSLLLNQNESGTLWVYIQAKMFATPVVVELYSKKEFYKKQFITNSISTISFTVMMTLALIAFFIYLRTKYLVTLACTGYIGIQGLGWFTASGSFGHLLTVSAFNPVYSGIIIFPFAIASASQFTKLLFNCPQKHPKLTLTFNLLSIVCFSLGIIMPFIPFTQSFLISHIIATIWIPLCIGTGIFMLAKNDFRAKYYLIGNLVYGFTLAGYILSHLYKIDWNISLEVIVQIALTIDCMCILLSLSEWLQIQQKEFHRSYAISRIDPLTQIGNRFAQNEKLASLKGPYCITFIDLDGFKKINDKLGHEEGDKVLIATANIMQKKLQELGSIYRCGGDEFIWVVDIENVQQTEAIITKLSDLLLQTEKELQHRGWSEAGLSFGIATSFETLNQSECLSLADQRMYKYKQDKKSIKGLAACS”, with “failed”.
Consider “MDRIIEKLDHGWWVVSHEQKLWLPKGELPYGERANFDLVGQRALQIGEWQGEPVWLVQQQRRHDMGSVRQVIDLDVGLFQLAGRGVQLAEFYRSHKYCGYCGHEMYPSKTEWAMLCSHCRERYYPQIAPCIIVAIRRDDSILLAQHTRHRNGVHTVLAGFVEVGETLEQAVAREVMEESGIKVKNLRYVTSQPWPFPQSLMTAFMAEYDSGDIVIDPKELLEANWYRYDDLPLLPPPGTVARRLIEDTVAMCRAEYE”, for which the protein production entry is “not failed”.
Then “HSIPYKNINLPCYFISPANDGEKRDTVMIVSGFDGTLEEEFLMRGLAAVERGYNVIHFAGPGQMDVFRKYPDTYFEPDFEQVVKRIINYFEFRQEINMAKLTLMGISFGGYFATRAASHEPRIKVLIANSPILDLHAYMCSFVKMDPCEMPDSEDFSINDLPSIPNEVMPPQLKAQTEHLIRRFGQPTFKATFHYLREFTVGDSLNHIKIPCLALLGSGEGGEPGKQFAEFCKITNSAQYEFSDFEGAGSHCQVGNVSYSNAVVYDWLDSL”, with “not failed”.
As for “MFTFISIMAVGVLIGYPLRHKSQVRKITPLIHIVVCLLLFLLGLSIGLNRLIIDNLGYFCGQAAVISSLSILGSMMASLAVYHIFF”, the protein production entry is recorded as “failed”.
With “MVTLTLLEPQQKTPLKQWCFENSSVIRIGRAADNHVILSDNLVSRHHLEIRQVSSGGGGSWQVVSKGTNGTFLNGVLVIQDALPNNALLQLAQGGPILQFQVQGIIPPEWQSISGSDSPLSGRGSLAEKSSPELSNNPGSLTCTHEGNSPQNLFCIHCGQPLSVIQTIRHYQVLRTLGQGGMGTTYLAWDAAGVIVGHPKLLVLKQMNADMARIAKAQELFEREAYTLKSLDHPGIPRYYDFFVEGGKKYLAMELVHGQDLEKRIYATGPVIPSLAIAWMIQTCDILDYLHRQEQPLIHRDIKPANLMVRTANNQIAVLDFGAVKEIGTTPGTRIGAEGYCAPEQERGQPLTQSDLYAIGPTIIFLLTGENPFKFYRQKGRGFRFDVSKIPTITPKLRDVIERTTEPLPRDRFQSAKELAAALAACK”, the protein production entry was “failed”.
Turning to “TISSGVPPELPGPPTNLGISNIGPRSVTLQFRPGYDGKTSISRWLVEAQVGVVGEGEEWLLIHQLSNEPDARSMEVPDLNPFTCYSFRMRQVNIVGTSPPSQPSRKIQTLQ”, the protein production result is “not failed”.
Next, “MPEKKPVTAENSVGIDLGIEKFAILSDGIAVENPRFIKRVEKRIKKLQKQISRKKKGSKNYEKQKIRIQKKYRKLRNLRDDFHDKVSTAIAKRYDTIFIEDLNVRGMQRNHHLARSITDVSFYSFKEKLKWKADRYGKNLIEIGRFDPSSKLCSRCGNIKKDLKLSDRVYSCDACGLTIDRDYNASLDIRKIGLVKVGLVPPEFTPVEIATSGLDGIYPYRQMSVGESGRSEASAEELEHHHHHH”: “failed”.
Then “AAIRHITTGTYIARIREEYQQTEVKPELQPMKEALARMTDRAEALIAFVTEQKDQELLDFQARRLVEMTAHAVFGHLLMLAANDDDSFRQSAEVYLRYGQAEQEKIDSYVRAFRPEELTFYSRCSRPE”, with “not failed”; and “TFSYLAETDYPVFTLGGSTADAARRLAASGCACAPVLDGERYLGMVHLSRLLEGRKGWPTVKEKLGEELLETVRSYRPGEQLFDNLISVAAAKCSVVPLADEDGRYEGVVSRKRILGFLAERI”, with “failed”; and “CTNYSLLKLAGDVESNPGPTIFSKASADLNALSTSLGELTGMLKDLKAKAETYSPFYKMAKMLFKLATLAVAAMRTKDPVVVVMLIADFGLEVFDTGFFFSYFQEELQPYMKTIPGKISDLVTDAATAAAQIPKGVYSFVSSFFETPEGAVEKQ”, with “failed”.
Consider “MHDGSVFYTIFLIFAGAAFFSTLVLYTKQSLLVAYITLGAILGPWGFKLVSDVTVVKQIGDIGIVFLLFLLGLHLQPQNLIHMLRKVTWIAIVSSILFAALAYGIGRWFGLTVTESLILGGAMMFSSTIIGLKLLPTTILHHQHTGEVMISVLLMQDVIAIVLLILLNSAHQDGNLSISDFILVIIALPALCLFSFLFERYILIKLLARFDRTQEYVFLLSIGWCLGISVLAQTIGLSEDIGAFIAGVALASSPISLFIAESLKPLRDFFLVMFFFSIGATFNFGFGAQVVIPAVILATLILIIKPLLFYILLARSGEKKQVAKEVGIRLGQGSEFSLLVASIALSTNLISEVASNLIQATTILTFIVSSYLVVLKYPTPIALSEKMRKD”, for which the protein production entry was “failed”.
As for “MKFDESKTLLPVRKPVNGNRKTAGYKLWVLIAVLLLAFGSMLTGSVSLKGIGLFHSADGVNAFSFGDDLDVLEIEEREKVVRQMWDVYGRSGGVKVPRFWREAFEAAYEFLISDSAAVRNAAVSDIAKLSLVRFVKSESTSAQPNLH”, the protein production result is “failed”.
Next, “MLNKTASYSEIEMSVVVPKDSKITNIEAVSKLAAPVKNDTSNITDLIEHIKSEKGISITPQKTDSYQDAYNRIKSGDSQAMVLNNAYVSLIELSTPDFKSQIKTIYTYKIKKKINRKNTNHKEGVFNIYISGIDTFGSISTVSRSDVNIIMTVNTNTHKVLLTTTPRDAYVKIPDGGGNQYDKLTHAGLYGVETSMKTLENLYDINLDYYARINFSSFLKLIDLLGGVTVYNDQAFTSKHGNFDFPVGQVTLNSEQALGFVRERYSLQGGDNDRGRNQEKVIAAIINKLASSQSVTKLNSITSQLQTSVQTNMTIDNINDLINNQLSTGQRFTVESQALTGHGSTGELPSYAMPGAQLYMMSIDQSSLSNAKSKIKNTMEELEHHHHHH”: “not failed”; “MPAKTALIYSNDFSRFSYGDDHPFKIQRIILARELMGMLGLTELPGACIHDCPRADEASLLTFHSPDYLQRLREFSDSDEPRADFRYGLGDLDNPVFKGFYDWAILGVGGTMEAARLVTEEGYDIAFTMAGGWHHAHRSKASGFSYLNDAVIAINTLVAKGLRVAYLDIDAHHGDGVQEAFYDTDQVLTVSIHESGIYFFPGTGFEDEIGRGQGRGYSVNVPLVAHTDDALFMKAFDEVAYPLIAAYNPDVLVTQLGVDTFRTDPLTRLEITTHSYTYILRKLKALKIPWVAVGGGGYNMINVARGWTLAWGIMNGVELPPKLPAQFVDMIAPMGHPNRMLLDAMHWAEEDDRNRALDAVERSIAAIRETVFPVIIGNYAAAAGE”: “failed”; “KPIPLAVIVVLGCFALGLGGIIGFVHKGEDYQAYQKLQWHTLAPEKIAPLVAQGYTVFVDITSDWCSICQTNKAEVTHREQVVNALMADDIILMQGNWSEADNTIAGYMQYEGIPGTPYNKIYGPRNPNGIVLPSKLTIEAVINGLAQAKAL”: “failed”.
Regarding “MKRTVALAASLSLLWLLLSGYWHDPLLLGFGLLSVGAVVALSLRMGIVDAEGVPLRQIPGLITYLPWLAWQVVLSAITVARIVLSPKLSISPTLAAIPAAPKTAIGQVILANSITLTPGTLSLDLDDGAVLVHGLCAAGIDDLMTGEMGRRVAALDGRGAP”, the protein production entry is on record as “failed”.
Next, “MASEEGQVIACHTVETWNEQLQKANESKTLVVVDFTASWCGPCRFIAPFFADLAKKLPNVLFLKVDTDELKSVASDWAIQAMPTFMFLKEGKILDKVVGAKKDELQSTIAKHLA”: “failed”; “MNDRVIQNSRQGERVLAALSYFSIFFAPIILPIFIWIFADRPTSNHAAKSLAYHIITYIGPILLILSIGFGGVLINNSSTITSVIMITVAIILFVITVWYTIKNIYRGVRVLISEHAYFHP”: “failed”.
For the sequence “MSAHRPAAATPAAAAPSKRERFLSLDVFRGLTIFLMILVNTAGPGAQAYAQLTHAAWFGFTLADLVFPSFLFAVGSAMSFALATNTPHLQFLGRVSRRAALILLCGVLMYWFPFFHLQPDGGWAFTTVDQLRLTCVLQRIGLCYLAAALLVRYLPPRGIAPVCLALLLGYWALLYAFGQPGAELSKTGNAGTRLDLWLYGRDHLYRKDGGFDPEGLLGTLSATVNVLAGYLCGRFLQRHGKTIASTRSLLLAGAGLVLLALLWAPAWPLSKKLWSGSFVACTVGLDLLALGALVYLLELRGWTGGSGFFTVLGRNPLAIYLFSELFVVVLRLIPAGSSGLDLYAWAGIGVFQTIAPGPLGSLLCALSYTLMCCAVGWWMDRRRWYLRL”, the protein production entry was “failed”.
Turning to “MKLVTYNIQYGIGLDGQYDVARIADAVRGADVVALQEVTRNNPRNGGRDMVAEIGEALPDYFAVYGSNFEANIGSRIENGRAITTTFQLGNMMLSKTPIHLSRNLLLPRSRSFEMMNFQRGALEALIETPLGFIRFYSIHLDHRSPVERASQIQFLRRRLLNYALEGGALSGVAEIGLPELPHPEAFVAMGDFNMLAGSPEYVELAGRPDHQFGMPLTADFAVDAAVRLNVTGDDLASWVDPKDPANTSRHKRIDYVFTSASPARSLQHLWVDHQATGSDHLPVWAELG”, the protein production result is “failed”.
